Test results reported in patent US20220073643A1 (NANJING GENSCRIPT BIOTECH, published 2022).
Residue numbers refer to the chain shown, from its start.

B1: 392A11C8 (antibody, V domains shown)
VH: DVQLVESGGGLVQPGGSRKLSCAASGFTFSGFGMHWIRQTPEKGLEWVAYISSGSRPIYYADTVKGRFTISRDNPKNTLFLQMTSLRSEDTAMYFCARFYYGNSFDHWGQGTLVTVSA
VL: DIVMTQSPSFLTVTAGEKVTMSCRSSQSLLNSGNQKNYLTWYQQKPGQPPKLLIYWASTRESGVPDRFTGSGSGTDFTLTISSVQAEDLALYYCQNAYSFPLTFGAGTKLELK
B2: 407E11H8 (antibody, V domains shown)
VH: B1 VH with G31D, A97V, Y101F
VL: B1 VL with S22T, S28N, Q35L, Y55S, A86P
B3: 407A8G10 (antibody, V domains shown)
VH: B1 VH
VL: B1 VL with K36R, T78A
B4: 394C2G5 (antibody, V domains shown)
VH: B1 VH with I51V
VL: B1 VL with R24K, S82N, S83N, K113T
B5: 405G8F11 (antibody, V domains shown)
VH: B1 VH with A23V, A24T, G31S, I37V, T40A, R56S, T84S, D106A, H107Y
VL: B1 VL with F10S, S22N, R24K, P46L, I54M, L91V, Y93F, N96S, Y98F, F100Y
B6: 409D1A7 (antibody, V domains shown)
VH: B1 VH with Q82H
VL: B1 VL with S22N, R24K, K36R, K113N
B7: 392C2F10 (antibody, V domains shown)
VH: EVQLQQSGPELVKPGASMKISCKASGYSFTGYTMNWVKQSLGKNLEWIGLINPFNGGTTYNQKFKGKATLTVDKSSSTAYMELLSLTSDDSAVYYCTRGDYWGQGTTLTVSS
VL: DIVMTQSPSSLTVTAGEKVTMSCKSSQSLLNSGNQKNYLTWYQQKPGQPPKLLIYWASTRESGVPDRFAGSGSGTDFTLTISSVQAEDLAVYYCQSDYSYPTFGAGTKLELK
B8: 286C7F11 (antibody, V domains shown)
VH: QVQLKESGPGLVAPSQSLSITCTVSGFSLTDYGVSWIRQPPGKGLEWLGVIWNRGNTYYNSALKSRLSISKDNSKSQVFLRMNSLQTDDTAMYYCAKHDFLRFLDYWGQGTTLTVSS
VL: DVVMTQSPSSLTVTAGEKVTMSCKSSQSLLNSGNQKNYLTWYQQKPGQPPKILIYWASTRESGVPDRFTGSGSGTDFSLTITSVQAEDLAVYYCLNDYYYPLTFGAGTKLELK
B9: 200A4H8 (antibody, V domains shown)
VH: QVQLKQSGPGLVQPSQSLSITCTVSGFSLTRYGVHWVRQSPGKGLEWLGVIWSGGNTDYNAAFISRLNIRKDNSKSQVFFKMNSLKPNDTAIYYCARAAYFGNSFDYWGQGTTLTVSS
VL: B1 VL with F10S, T12P, R24K, E61D, L91V, A97N, S99I, F100Y
B10: 406F11G8 (antibody, V domains shown)
VH: B1 VH with G31S, I37V, T40A, R56S, P75S, F99I, D106A, H107Y
VL: B1 VL with F10S, T20A, R24K, S28T, L91V, S99Y, F100Y, A106S
B11: 407D8G1 (antibody, V domains shown)
VH: B1 VH with K65Q, A118S
VL: B1 VL with R24K
B12: 395B3C11 (antibody, V domains shown)
VH: B1 VH with K65Q, A118S
VL: B1 VL with R24K
B13: 391H11H3 (antibody, V domains shown)
VH: B1 VH with K65Q, A118S
VL: B1 VL with R24K
B14: 292D9C7 (antibody, V domains shown)
VH: B8 VH with N53G, R54G, T57A, R81K, Q86R, H98N, D99G, F100L, F103Y, T111S
VL: B8 VL with V2T, I52L, T75R, S78T, T82S, A86V, V91I, L95Q, L110V
B15: 406E1H7 (antibody, V domains shown)
VH: B1 VH with K65Q, A118S
VL: B1 VL with R24K
B16: 391F1G2 (antibody, V domains shown)
VH: B1 VH with G31S, I37V, T40A, R56S, F99I, D106A, H107Y
VL: B1 VL with F10S, T20A, R24K, S28T, I54L, L91V, S99Y, F100Y, A106S
B17: 370E2B12C3 (antibody, V domains shown)
VH: QVQLKESGPGLVAPSQSLSITCTVSGFSLTTYGVHWVRQPPGKGLEWLGVIWAGGSTNYNSALMSRVSINKDNSKSQVFIKMNSLQADDTALYYCARAAYYGNGLDYWGQGTTLTVSS
VL: DIVMTQSPSSLTVTAGEKVTMSCKSSQTLLNSGNQKNYLTWYQQKPGQPPKLLIYWASTGESGVPDRFTGSGSGTDFTLTISSVQAEDLAVYFCQNAYFYPFTFGGGTKLEIK
B18: 393C2C5 (antibody, V domains shown)
VH: B1 VH with G31S, I37V, T40A, R56S, R98T, D106A, H107Y
VL: B17 VL with P46S, G60R, F93Y, F99S, F102V, G106S, L110V, I112L
B19: 407H12E6 (antibody, V domains shown)
VH: B1 VH with F29V, G31S, I37V, T40A, R56S, M93I
VL: B1 VL with F10S, A15T, R24K, P49S, A86T, L91V, Y93F, A97N, S99F
B20: 406G3C4 (antibody, V domains shown)
VH: EIQLQQSGPELMKPGASVRISCKASGYSFISYYIYWVKQSHGKGLEWIGYIDPFNGNTNYNQKFKGKATLTVDRSSSTAYIHLNSLTSEDSAVYYCAIVNGYGRGAMDYWGQGTSVTVSS
VL: QIVLTQSPAIMSASPGEKVTMTCSASSSISYMHWYQQKSGTSPKRWIYDTSKLASGVPARFSGSGSGTSYSLTISSMEAEDAATYYCQQWSSNPLTFGDGTKLELK

target: human Claudin18.2 (human); assay: cell-based or functional assay

CDC % Relative activity [%] | CDC EC50 [µg/mL] | Binder
133 | 1.95 | B1
60.4 | 4.32 | B2
23.9 | 10.9 | B3
131 | 1.98 | B4
0.08 | 3220 | B5
33.5 | 7.78 | B6
5.43 | 47.6 | B7
107 | 1.52 | B8
84.5 | 2.27 | B9
101 | 2.57 | B10
849 | 0.308 | B11
144 | 1.8 | B12
125 | 2.07 | B13
151 | 1.14 | B14
125 | 2.07 | B15
176 | 1.47 | B16
379 | 0.453 | B17
285 | 0.909 | B18
143 | 1.83 | B19
136 | 1.93 | B20
